Data from patent US20230181729A1 (IMMATICS BIOTECHNOLOGIES, published 2023).

B1: TCR R17P1D7 (TCR, V domains shown)
V domain 1: QTVTQSQPEMSVQEAETVTLSCTYDTSESDYYLFWYKQPPSRQMILVIRQEAYKQQNATENRFSVNFQKAAKSFSLKISDSQLGDAAMYFCAYRWAQGGSEKLVFGKGTKLTVNP
V domain 2: DIYQTPRYLVIGTGKKITLECSQTMGHDKMYWYQQDPGMELHLIHYSYGVNSTEKGDLSSESTVSRIRTEHFPLTLESARPSHTSQYLCATELWSSGGTGELFFGEGSRLTVLE
B2: TCR R16P1E8 (TCR, V domains shown)
V domain 1: QKEVEQDPGPLSVPEGAIVSLNCTYSNSAFQYFMWYRQYSRKGPELLMYTYSSGNKEDGRFTAQVDKSSKYISLFIRDSQPSDSATYLCAMSEAAGNKLTFGGGTRVLVKP
V domain 2: EAGVAQSPRYKIIEKRQSVAFWCNPISGHATLYWYQQILGQGPKLLIQFQNNGVVDDSQLPKDRFSAERLKGVDSTLKIQPAKLEDSAVYLCASSYTNQGEAFFGQGTRLTVVE

Target: HLA-A*02/PRAME-004 presented on cells (PRAME-004-loaded T2 cells or PRAME-004-positive tumor cell lines) (human)
Experiment: cell-based or functional assay

Row | Binder | EC50 of IFNγ release by CD8+ T cells re-expressing the TCR; T2 cells loaded with PRAME-004 (10 µM to 10 pM)
1 | B1 | 1.83 nM
2 | B2 | ~1 µM
